Measured values from PMC3733117.

Molecular target: DNA polymerase beta I260Q (rat, UniProt P06766 1-335, I260Q)
Experiment: X-ray crystallography

B1: cocrystallization primer/template (dsDNA)
DNA 1: ATGTGAG
DNA 2: CAAACTCACAT
binding result: binds
